Measurements taken from PMC10781510.

Biological target: HIS-MBP-GASZ-ΔMLS (mouse)
Assay: native gel or EMSA; native PAGE of gel-filtration fraction 5, non-reducing and non-denaturing sample buffer (50 mM Tris pH 7.6, 100 mM NaCl, 0.01% DDM), with or without 2% SDS in the loading buffer, Coomassie blue; monomer to dimer

HIS-MBP-GASZ-ΔMLS (domain or fragment)
stoichiometry N: 2
